# Molecular target: B7H3 on H358 tumor cells (UniProt Q5ZPR3)
# Assay: FACS on H358 cells, 1 h on ice, fluorescence-labelled anti-human Fc
# B7H3 on H358 tumor cells, sequence (Q5ZPR3 29-534): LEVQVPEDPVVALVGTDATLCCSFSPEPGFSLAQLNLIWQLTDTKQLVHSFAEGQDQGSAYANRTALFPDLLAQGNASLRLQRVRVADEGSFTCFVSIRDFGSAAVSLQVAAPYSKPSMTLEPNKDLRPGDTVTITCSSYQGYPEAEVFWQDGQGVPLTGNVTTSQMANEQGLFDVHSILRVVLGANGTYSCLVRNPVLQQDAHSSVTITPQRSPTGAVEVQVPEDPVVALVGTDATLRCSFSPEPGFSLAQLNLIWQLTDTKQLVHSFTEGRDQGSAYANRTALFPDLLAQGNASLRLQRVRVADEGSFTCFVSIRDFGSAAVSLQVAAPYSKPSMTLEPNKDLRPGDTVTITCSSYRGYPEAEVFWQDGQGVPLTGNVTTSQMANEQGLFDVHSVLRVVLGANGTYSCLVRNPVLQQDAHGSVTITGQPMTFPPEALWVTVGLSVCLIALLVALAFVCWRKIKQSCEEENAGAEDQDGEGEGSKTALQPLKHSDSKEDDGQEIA
substance,measurement,value
MABX-9001a (a humanized anti-B7H3 IgG1 monoclonal antibody used for DS-7300a),EC50 (read off the curve),1 nM
